For one substance, percent of parent results are on record in article PMC6874086.

Read-outs that look alike come from different tables or passages of the source.

Assay [1] addresses VPS4A/B (UniProt Q9UN37). The conditions noted are these: parent: est. 100; read off a plot.
Assay [2] has as its target VPS4A/B (UniProt Q9UN37). The conditions noted are these: parent: est. 100; read off a plot. The source holds these as a separate data set.

UniProt Q9UN37, sequence (Q9UN37 whole entry): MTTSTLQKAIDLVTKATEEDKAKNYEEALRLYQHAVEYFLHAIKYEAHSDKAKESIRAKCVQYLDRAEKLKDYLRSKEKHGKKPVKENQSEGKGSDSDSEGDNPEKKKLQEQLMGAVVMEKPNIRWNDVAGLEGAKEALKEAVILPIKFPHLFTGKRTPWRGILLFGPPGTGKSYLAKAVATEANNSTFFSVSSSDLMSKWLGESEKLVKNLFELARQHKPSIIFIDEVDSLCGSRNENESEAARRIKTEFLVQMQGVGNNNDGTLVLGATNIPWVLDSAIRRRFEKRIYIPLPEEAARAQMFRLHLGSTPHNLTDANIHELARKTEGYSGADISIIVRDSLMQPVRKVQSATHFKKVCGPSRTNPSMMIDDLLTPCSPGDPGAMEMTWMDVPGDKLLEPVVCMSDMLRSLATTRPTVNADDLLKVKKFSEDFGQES

As to “LCMV Z WT with a C-terminal streptavidin binding peptide (SBP) tag (from UniProt P18541) K5R; K10R; K33R; K38R; K69R; K77R”, the percent of parent was 23 % of WT in assay [1] and 24 % of WT in assay [2].
